Assay results as given in patent US20220380728A1 (EAST CAROLINA UNIVERSITY, published 2022).

T1: murine CD25 (IL-2 receptor alpha chain) on mouse T cells (mouse, UniProt P01590 22-268)
T1 construct: whole, on cells; Endogenous CD25 on cultured mouse Tregs and Tcons; also called IL-2Rα; surface CD25
T1 sequence (looked up): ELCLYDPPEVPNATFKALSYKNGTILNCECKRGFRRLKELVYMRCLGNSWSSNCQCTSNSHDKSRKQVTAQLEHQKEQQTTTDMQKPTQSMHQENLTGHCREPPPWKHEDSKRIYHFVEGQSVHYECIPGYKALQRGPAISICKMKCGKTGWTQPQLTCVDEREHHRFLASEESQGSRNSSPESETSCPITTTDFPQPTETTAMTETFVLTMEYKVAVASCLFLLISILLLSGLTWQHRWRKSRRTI

B1: PC61 anti-CD25 monoclonal antibody (PC61-5.3 hybridoma, rat IgG1, lambda) (antibody, V domains shown)
VH: QVQLQQSGAELVRPGTSVKLSCKVSGDTITAYYIHFVKQRPGQGLEWIGRIDPEDDSTEYAEKFKNKATITANTSSNTAHLKYSRLTSEDTATYFCTTDNMGATEFVYWGQGTLVTVSS
VL: QVVLTQPKSVSASLESTVKLSCKLNSGNIGSYYMHWYQQREGRSPTNLIYRDDKRPDGAPDRFSGSIDISSNSAFLTINNVQTEDEAMYFCHSYDGRMYIFGGGTKLTVLG
notes: also called PC61 mAb; anti-CD25 PC61 mAb

How the values were obtained:
[1] = molecular target: TGF-β produced by cells in the culture (mouse) (UniProt Q61315); experiment: cell-based or functional assay
Sequence of TGF-β produced by cells in the culture (mouse) (Q61315 whole entry): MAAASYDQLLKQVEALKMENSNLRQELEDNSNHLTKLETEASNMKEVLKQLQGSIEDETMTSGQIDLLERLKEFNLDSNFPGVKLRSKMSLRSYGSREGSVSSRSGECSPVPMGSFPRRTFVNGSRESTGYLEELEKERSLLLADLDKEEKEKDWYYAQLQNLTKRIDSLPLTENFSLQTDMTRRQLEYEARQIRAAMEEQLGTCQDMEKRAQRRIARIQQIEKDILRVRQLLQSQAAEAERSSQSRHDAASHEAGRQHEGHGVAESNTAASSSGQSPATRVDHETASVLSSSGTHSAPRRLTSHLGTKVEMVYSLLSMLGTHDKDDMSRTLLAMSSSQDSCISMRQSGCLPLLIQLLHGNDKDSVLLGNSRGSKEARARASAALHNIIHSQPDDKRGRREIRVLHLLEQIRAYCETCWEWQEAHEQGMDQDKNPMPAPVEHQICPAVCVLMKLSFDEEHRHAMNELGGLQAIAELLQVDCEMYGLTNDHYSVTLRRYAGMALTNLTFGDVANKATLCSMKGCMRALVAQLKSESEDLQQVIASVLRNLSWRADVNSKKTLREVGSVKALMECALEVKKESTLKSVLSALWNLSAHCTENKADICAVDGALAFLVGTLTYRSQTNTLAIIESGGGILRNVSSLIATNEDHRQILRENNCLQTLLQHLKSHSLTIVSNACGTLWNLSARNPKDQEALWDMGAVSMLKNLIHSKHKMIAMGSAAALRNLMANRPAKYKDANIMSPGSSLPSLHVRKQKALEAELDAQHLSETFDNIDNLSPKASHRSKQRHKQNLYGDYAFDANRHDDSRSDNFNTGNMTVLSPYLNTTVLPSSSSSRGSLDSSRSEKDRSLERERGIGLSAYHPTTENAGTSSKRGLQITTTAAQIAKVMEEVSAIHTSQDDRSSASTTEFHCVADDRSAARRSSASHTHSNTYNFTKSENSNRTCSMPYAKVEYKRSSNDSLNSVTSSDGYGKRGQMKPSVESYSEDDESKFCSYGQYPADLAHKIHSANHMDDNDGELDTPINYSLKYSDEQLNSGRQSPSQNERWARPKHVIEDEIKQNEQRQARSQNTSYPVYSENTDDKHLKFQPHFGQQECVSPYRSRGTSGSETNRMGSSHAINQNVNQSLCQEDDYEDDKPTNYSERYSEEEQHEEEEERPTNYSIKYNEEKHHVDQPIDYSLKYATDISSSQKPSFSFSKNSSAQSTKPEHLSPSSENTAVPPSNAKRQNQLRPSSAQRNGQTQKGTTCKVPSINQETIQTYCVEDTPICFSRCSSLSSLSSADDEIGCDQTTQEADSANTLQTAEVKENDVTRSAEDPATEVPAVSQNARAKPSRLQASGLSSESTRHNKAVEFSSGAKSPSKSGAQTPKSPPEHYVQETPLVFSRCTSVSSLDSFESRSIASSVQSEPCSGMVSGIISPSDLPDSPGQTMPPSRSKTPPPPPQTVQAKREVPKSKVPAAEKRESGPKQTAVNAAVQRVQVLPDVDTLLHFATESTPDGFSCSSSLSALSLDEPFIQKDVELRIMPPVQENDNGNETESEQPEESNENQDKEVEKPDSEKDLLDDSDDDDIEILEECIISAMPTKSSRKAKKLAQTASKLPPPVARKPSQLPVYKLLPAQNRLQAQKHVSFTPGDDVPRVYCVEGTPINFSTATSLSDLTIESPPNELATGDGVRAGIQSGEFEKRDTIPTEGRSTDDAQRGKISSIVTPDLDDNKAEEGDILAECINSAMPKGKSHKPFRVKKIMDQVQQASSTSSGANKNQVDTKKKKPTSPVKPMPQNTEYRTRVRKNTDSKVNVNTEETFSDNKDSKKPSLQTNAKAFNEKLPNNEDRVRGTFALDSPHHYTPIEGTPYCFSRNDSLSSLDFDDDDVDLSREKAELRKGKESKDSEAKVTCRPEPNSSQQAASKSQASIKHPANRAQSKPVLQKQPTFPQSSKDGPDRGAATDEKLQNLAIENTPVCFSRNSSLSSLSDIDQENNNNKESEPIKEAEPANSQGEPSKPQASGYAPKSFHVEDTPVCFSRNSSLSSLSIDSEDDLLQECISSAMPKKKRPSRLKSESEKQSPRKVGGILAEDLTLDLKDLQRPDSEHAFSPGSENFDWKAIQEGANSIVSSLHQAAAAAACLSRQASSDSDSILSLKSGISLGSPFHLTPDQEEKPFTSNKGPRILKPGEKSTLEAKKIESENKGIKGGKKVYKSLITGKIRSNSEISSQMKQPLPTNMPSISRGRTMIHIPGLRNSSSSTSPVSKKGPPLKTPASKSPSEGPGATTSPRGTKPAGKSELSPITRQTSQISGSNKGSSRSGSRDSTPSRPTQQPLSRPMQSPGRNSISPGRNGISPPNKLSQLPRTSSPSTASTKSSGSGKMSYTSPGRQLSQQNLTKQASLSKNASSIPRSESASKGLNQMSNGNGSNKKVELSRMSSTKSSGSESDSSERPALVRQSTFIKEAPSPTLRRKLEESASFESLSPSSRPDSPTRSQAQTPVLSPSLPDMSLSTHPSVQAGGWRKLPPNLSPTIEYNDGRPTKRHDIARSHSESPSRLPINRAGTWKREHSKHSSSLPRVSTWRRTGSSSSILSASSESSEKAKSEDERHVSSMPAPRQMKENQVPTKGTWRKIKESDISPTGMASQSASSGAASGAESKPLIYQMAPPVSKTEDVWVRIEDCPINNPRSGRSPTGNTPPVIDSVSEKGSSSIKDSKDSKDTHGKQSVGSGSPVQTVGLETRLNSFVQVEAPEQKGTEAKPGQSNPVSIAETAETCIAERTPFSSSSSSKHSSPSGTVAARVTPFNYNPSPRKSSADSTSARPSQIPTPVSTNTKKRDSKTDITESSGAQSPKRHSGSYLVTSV

[2] = molecular target: T1, murine CD25 (IL-2 receptor alpha chain) …; experiment: flow cytometry on 2D2-FIG Tregs; loss of APC-conjugated PC61 staining

Molecule | FOXP3+ Treg percentages during secondary activation (1D11 at 50 µg/ml) [1] | binding result [2]
1D11.16.8 anti-mouse-TGF-β1/2/3 monoclonal antibody (mouse IgG1) | < 50% | 
B1 |  | binds
